In patent publication US6165749:

Test system: AccIII restriction endonuclease (L2V) L2V
Assay: cleavage_in_vitro
Settings: Takara data sheet conditions; about 16 times the level of the Acc bacterium

“AccIII assay substrate DNA (data sheet conditions)” gave an activity (units per g wet cells) of 8000.
